Reference: patent US20260152573A1 (ARGENX, published 2026)

Legend:
mouse serum albumin = target: T1, mouse serum albumin (mouse, UniProt P07724 25-608); assay: SPR Biacore 8K+ SCK, albumin on chip, pH 7.4
T1 construct: Immobilised on SPR chips; also called mouseSA; MSA

human serum albumin [1] = target: T2, human serum albumin (human, UniProt P02768 25-609); assay: SPR Biacore 8K+ SCK, albumin on chip, pH 7.4
T2 construct: Immobilised on SPR chips; also added in solution in the FcRn occupancy assays; also called HSA; humanSA

[2] = target: T3, cynomolgus monkey serum albumin (cynomolgus monkey, UniProt A2V9Z4 25-608); assay: SPR Biacore 8K+ SCK, albumin on chip, pH 7.4
T3 construct: Immobilised on SPR chips; also called cynoSA; cynomolgus albumin

human serum albumin [3] = target: T2, human serum albumin; assay: SPR Biacore, HSA coated, kinetic fit, pH 5.5
[4] = target: T4, neonatal Fc receptor (FcRn), endogenous in U937 cells (human, UniProt P55899 24-365; P61769 21-119); assay: FcRn occupancy, FACS, U937 cells, with albumin
T4 construct: whole, on cells; Free FcRn was stained intracellularly after fixation and permeabilisation
Description: Next, FcRn occupancy was tested using a cell-based FcRn occupancy assay in the presence or absence of albumin. […] Cells (HEK FcRn mut or U937) were plated in a 96-well microplate. Cells were incubated with test article for two hours, shaking at 37° C., pH 7.4 in FACS buffer. Plates were then transferred immediately on ice and cells were collected by centrifugation at 4° C. Cells stained for viability in FACS buffer at pH 6 and then fixed/permeabilized in permeabilization buffer at pH 6. […] Cells were analyzed by FACS, ensuring that they are kept on ice until immediately prior to analysis.

human serum albumin [5] = target: T2, human serum albumin; assay: SPR Biacore, HSA coated, steady state, pH 5.5
human serum albumin [6] = target: T2, human serum albumin; assay: SPR Biacore, HSA coated, steady state, pH 7.4
human serum albumin [7] = target: T2, human serum albumin; assay: SPR Biacore, HSA coated, kinetic fit, pH 7.4

T4 sequence (P55899 24-365 limits assumed, chain 1 of 2): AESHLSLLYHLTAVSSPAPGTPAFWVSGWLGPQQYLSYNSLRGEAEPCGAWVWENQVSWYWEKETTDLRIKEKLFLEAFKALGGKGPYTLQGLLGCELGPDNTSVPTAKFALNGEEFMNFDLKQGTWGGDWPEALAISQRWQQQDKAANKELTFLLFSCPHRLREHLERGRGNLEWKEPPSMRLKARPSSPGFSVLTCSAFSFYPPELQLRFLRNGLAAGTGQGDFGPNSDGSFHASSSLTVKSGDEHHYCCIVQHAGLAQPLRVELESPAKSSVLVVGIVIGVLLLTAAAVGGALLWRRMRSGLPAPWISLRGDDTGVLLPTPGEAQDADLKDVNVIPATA
T4 sequence (P61769 21-119 limits assumed, chain 2 of 2): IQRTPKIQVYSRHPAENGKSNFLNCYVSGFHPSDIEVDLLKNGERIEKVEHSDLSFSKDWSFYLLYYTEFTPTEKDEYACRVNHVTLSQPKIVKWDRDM

Binder | Kd (mouse serum albumin) [nM] | Kd (human serum albumin [1]) [nM] | Kd [2] [nM] | Kd (human serum albumin [3]) [nM] | % max occupancy [4] [%] | IC50 [4] [nM] | Kd (human serum albumin [5]) [nM] | Kd (human serum albumin [6]) [nM] | Kd (human serum albumin [7]) [nM]
Alb23 D57A (VHH, VHH alone) VHH: EVQLLESGGGLVQPGGSLRLSCAASGFTFRSFGMSWVRQAPGKGPEWVSSISGSGSATLYADSVKGRFTISRDNSKNTLYLQMNSLRPEDTAVYYCTIGGSLSRSSQGTLVTVSS | 50.6 | 5.58 | 6.25 | – | – | – | – | – | –
Alb23 R104A (VHH, VHH alone) VHH: EVQLLESGGGLVQPGGSLRLSCAASGFTFRSFGMSWVRQAPGKGPEWVSSISGSGSDTLYADSVKGRFTISRDNSKNTLYLQMNSLRPEDTAVYYCTIGGSLSASSQGTLVTVSS | 49.7 | 4.58 | 4.92 | – | – | – | – | – | –
Alb23 S56A (VHH, VHH alone) VHH: EVQLLESGGGLVQPGGSLRLSCAASGFTFRSFGMSWVRQAPGKGPEWVSSISGSGADTLYADSVKGRFTISRDNSKNTLYLQMNSLRPEDTAVYYCTIGGSLSRSSQGTLVTVSS | 37.7 | 3.33 | 3.65 | – | – | – | – | – | –
Alb23 T58A (VHH, VHH alone) VHH: EVQLLESGGGLVQPGGSLRLSCAASGFTFRSFGMSWVRQAPGKGPEWVSSISGSGSDALYADSVKGRFTISRDNSKNTLYLQMNSLRPEDTAVYYCTIGGSLSRSSQGTLVTVSS | 57.1 | 5.97 | 6.83 | – | – | – | – | – | –
Alb23 I51A (VHH, VHH alone) VHH: EVQLLESGGGLVQPGGSLRLSCAASGFTFRSFGMSWVRQAPGKGPEWVSSASGSGSDTLYADSVKGRFTISRDNSKNTLYLQMNSLRPEDTAVYYCTIGGSLSRSSQGTLVTVSS | 42.3 | 5.17 | 5.53 | – | – | – | – | – | –
Alb23 S35A (VHH, VHH alone) VHH: EVQLLESGGGLVQPGGSLRLSCAASGFTFRSFGMAWVRQAPGKGPEWVSSISGSGSDTLYADSVKGRFTISRDNSKNTLYLQMNSLRPEDTAVYYCTIGGSLSRSSQGTLVTVSS | 37.6 | 4.95 | 5.24 | – | – | – | – | – | –
Alb23 S31A (VHH, VHH alone) VHH: EVQLLESGGGLVQPGGSLRLSCAASGFTFRAFGMSWVRQAPGKGPEWVSSISGSGSDTLYADSVKGRFTISRDNSKNTLYLQMNSLRPEDTAVYYCTIGGSLSRSSQGTLVTVSS | 29.3 | 3.36 | 3.74 | – | – | – | – | – | –
Alb23 S103A (VHH, VHH alone) VHH: EVQLLESGGGLVQPGGSLRLSCAASGFTFRSFGMSWVRQAPGKGPEWVSSISGSGSDTLYADSVKGRFTISRDNSKNTLYLQMNSLRPEDTAVYYCTIGGSLARSSQGTLVTVSS | 38.2 | 3.85 | 4.2 | – | – | – | – | – | –
Alb23 K65A (VHH, VHH alone) VHH: EVQLLESGGGLVQPGGSLRLSCAASGFTFRSFGMSWVRQAPGKGPEWVSSISGSGSDTLYADSVAGRFTISRDNSKNTLYLQMNSLRPEDTAVYYCTIGGSLSRSSQGTLVTVSS | 52.3 | 5.36 | 3.18 | – | – | – | – | – | –
Alb23 S50A (VHH, VHH alone) VHH: EVQLLESGGGLVQPGGSLRLSCAASGFTFRSFGMSWVRQAPGKGPEWVSAISGSGSDTLYADSVKGRFTISRDNSKNTLYLQMNSLRPEDTAVYYCTIGGSLSRSSQGTLVTVSS | 19 | 2.33 | 2.6 | – | – | – | – | – | –
Alb23 V64A (VHH, VHH alone) VHH: EVQLLESGGGLVQPGGSLRLSCAASGFTFRSFGMSWVRQAPGKGPEWVSSISGSGSDTLYADSAKGRFTISRDNSKNTLYLQMNSLRPEDTAVYYCTIGGSLSRSSQGTLVTVSS | 31.9 | 2.9 | 4.11 | – | – | – | – | – | –
Alb23 G66A (VHH, VHH alone) VHH: EVQLLESGGGLVQPGGSLRLSCAASGFTFRSFGMSWVRQAPGKGPEWVSSISGSGSDTLYADSVKARFTISRDNSKNTLYLQMNSLRPEDTAVYYCTIGGSLSRSSQGTLVTVSS | 39.5 | 3.97 | 5.84 | – | – | – | – | – | –
Alb23 D62A (VHH, VHH alone) VHH: EVQLLESGGGLVQPGGSLRLSCAASGFTFRSFGMSWVRQAPGKGPEWVSSISGSGSDTLYAASVKGRFTISRDNSKNTLYLQMNSLRPEDTAVYYCTIGGSLSRSSQGTLVTVSS | 36.5 | 3.07 | 3.48 | – | – | – | – | – | –
Alb23 Y60A (VHH, VHH alone) VHH: EVQLLESGGGLVQPGGSLRLSCAASGFTFRSFGMSWVRQAPGKGPEWVSSISGSGSDTLAADSVKGRFTISRDNSKNTLYLQMNSLRPEDTAVYYCTIGGSLSRSSQGTLVTVSS | 42.2 | 4.28 | 4.58 | – | – | – | – | – | –
Alb23 S54A (VHH, VHH alone) VHH: EVQLLESGGGLVQPGGSLRLSCAASGFTFRSFGMSWVRQAPGKGPEWVSSISGAGSDTLYADSVKGRFTISRDNSKNTLYLQMNSLRPEDTAVYYCTIGGSLSRSSQGTLVTVSS | 25.6 | 2.81 | 3.13 | – | – | – | – | – | –
OA-Fc-ABDEG-Alb23 (Fc fusion, also called one-armed Fc-ABDEG-Alb23; OA-Fc-ABDEG-Alb23 (parental)) DKTHTCPPCPAPELLGGPSVFLFPPKPKDTLYITREPEVTCVVVDVSHEDPEVKFNWYVDGVEVHNAKTKPREEQYNSTYRVVSVLTVLHQDWLNGKEYKCKVSNKALPAPIEKTISKAKGQPREPQVYTLPPSRDELTKNQVSLWCLVKGFYPSDIAVEWESNGQPENNYKTTPPVLDSDGSFFLYSKLTVDKSRWQQGNVFSCSVMHEALKFHYTQKSLSLSPGGGGGSGGGGSGGGGSGGGGSEVQLLESGGGLVQPGGSLRLSCAASGFTFRSFGMSWVRQAPGKGPEWVSSISGSGSDTLYADSVKGRFTISRDNSKNTLYLQMNSLRPEDTAVYYCTIGGSLSRSSQGTLVTVSS Fc: DKTHTCPPCPAPELLGGPSVFLFPPKPKDTLYITREPEVTCVVVDVSHEDPEVKFNWYVDGVEVHNAKTKPREEQYNSTYRVVSVLTVLHQDWLNGKEYKCKVSNKALPAPIEKTISKAKGQPREPQVYTLPPSRDELTKNQVSLSCAVKGFYPSDIAVEWESNGQPENNYKTTPPVLDSDGSFFLVSKLTVDKSRWQQGNVFSCSVMHEALKFHYTQKSLSLSPG | – | – | – | 16.6 | 67.4 | 5.2 | 32.7 | – | –
OA-Fc-ABDEG-Alb23-G33A (Fc fusion) DKTHTCPPCPAPELLGGPSVFLFPPKPKDTLYITREPEVTCVVVDVSHEDPEVKFNWYVDGVEVHNAKTKPREEQYNSTYRVVSVLTVLHQDWLNGKEYKCKVSNKALPAPIEKTISKAKGQPREPQVYTLPPSRDELTKNQVSLWCLVKGFYPSDIAVEWESNGQPENNYKTTPPVLDSDGSFFLYSKLTVDKSRWQQGNVFSCSVMHEALKFHYTQKSLSLSPGGGGGSGGGGSGGGGSGGGGSEVQLLESGGGLVQPGGSLRLSCAASGFTFRSFAMSWVRQAPGKGPEWVSSISGSGSDTLYADSVKGRFTISRDNSKNTLYLQMNSLRPEDTAVYYCTIGGSLSRSSQGTLVTVSS Fc: DKTHTCPPCPAPELLGGPSVFLFPPKPKDTLYITREPEVTCVVVDVSHEDPEVKFNWYVDGVEVHNAKTKPREEQYNSTYRVVSVLTVLHQDWLNGKEYKCKVSNKALPAPIEKTISKAKGQPREPQVYTLPPSRDELTKNQVSLSCAVKGFYPSDIAVEWESNGQPENNYKTTPPVLDSDGSFFLVSKLTVDKSRWQQGNVFSCSVMHEALKFHYTQKSLSLSPG | – | – | – | 124 | – | – | 145 | 863 | 150
OA-Fc-ABDEG-Alb23-G33A/G53A (Fc fusion) DKTHTCPPCPAPELLGGPSVFLFPPKPKDTLYITREPEVTCVVVDVSHEDPEVKFNWYVDGVEVHNAKTKPREEQYNSTYRVVSVLTVLHQDWLNGKEYKCKVSNKALPAPIEKTISKAKGQPREPQVYTLPPSRDELTKNQVSLWCLVKGFYPSDIAVEWESNGQPENNYKTTPPVLDSDGSFFLYSKLTVDKSRWQQGNVFSCSVMHEALKFHYTQKSLSLSPGGGGGSGGGGSGGGGSGGGGSEVQLLESGGGLVQPGGSLRLSCAASGFTFRSFAMSWVRQAPGKGPEWVSSISASGSDTLYADSVKGRFTISRDNSKNTLYLQMNSLRPEDTAVYYCTIGGSLSRSSQGTLVTVSS Fc: DKTHTCPPCPAPELLGGPSVFLFPPKPKDTLYITREPEVTCVVVDVSHEDPEVKFNWYVDGVEVHNAKTKPREEQYNSTYRVVSVLTVLHQDWLNGKEYKCKVSNKALPAPIEKTISKAKGQPREPQVYTLPPSRDELTKNQVSLSCAVKGFYPSDIAVEWESNGQPENNYKTTPPVLDSDGSFFLVSKLTVDKSRWQQGNVFSCSVMHEALKFHYTQKSLSLSPG | – | – | – | 90.2 | – | – | 135 | 767 | 499
